Consider 4 molecules from US20210388110A1 (published 2021).

This assay has as its target T1, soluble human CD3ε chain (human, UniProt P07766 23-126, limits assumed).
T1 construct: also called human CD3 epsilon chain
Kind of assay: SPR (Biacore), soluble human CD3ε chain. A general note: Surface plasmon resonance follows binding to a sensor surface in real time, without labels.

T1 sequence (P07766 23-126 limits assumed): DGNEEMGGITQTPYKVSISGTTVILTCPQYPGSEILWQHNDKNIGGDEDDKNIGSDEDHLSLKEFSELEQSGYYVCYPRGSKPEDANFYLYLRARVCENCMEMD

B1: TR01H108-E22Hh/none-Hi-Kn010G3/L0011-k0 (antibody, human IgG1, kappa, L234A L235A, N297A)
heavy: QVQLVESGGGLVQPGRSLRLSCAASGFTFSNAWMHWVRQAPGKGLEWVAQIKDKSQNYATYTAESVKGRFTISRDDSKNSLYLQMNSLKTEDTAVYYCRYVHYAAGYGVDAWGQGTTVTVSSASTKGPSVFPLAPSSKSTSGGTAALGCLVKDYFPEPVTVSWNSGALTSGVHTFPAVLQSSGLYSLSSVVTVPSSSLGTQTYICNVNHKPSNTKVDKKVEPKSCDKTHTCPPCPAPEAAGGPSVFLFPPKPKDTLMISRTPEVTCVVVDVSHEDPEVKFNWYVDGVEVHNAKTKPREEQYASTYRVVSVLTVLHQDWLNGKEYKCKVSNKALPAPIEKTISKAKGQPREPQVYTLPPSRCELTKNQVSLSCAVKGFYPSDIAVEWESNGQPENNYKTTPPVLDSDGSFFLVSKLTVDKSRWQQGNVFSCSVMHEALHNHYTQKSLSLSPDYKDDDDK
chain: EPKSSDKTHTCPPCPAPELLGGPSVFLFPPKPKDTLMISRTPEVTCVVVDVSHEDPEVKFNWYVDGVEVHNAKTKPREEQYNSTYRVVSVLTVLHQDWLNGKEYKCKVSNKALPAPIEKTISKAKGQPREPQVCTLPPSRDELTKNQVSLWCLVKGFYPSDIAVEWESNGQPENNYKTTPPVLDSDGSFFLYSKLTVDKSRWQQGNVFSCSVMHEALHNRYTQKSLSLSP
light: DIVMTQSPLSLPVTPGEPASISCRSSQPLVHSNRNTYLHWYQQKPGQAPRLLIYKVSNRFSGVPDRFSGSGSGTDFTLKISRVEAEDVGVYYCGQGTQVPYTFGQGTKLEIKRTVAAPSVFIFPPSDEQLKSGTASVVCLLNNFYPREAKVQWKVDNALQSGNSQESVTEQDSKDSTYSLSSTLTLSKADYEKHKVYACEVTHQGLSSPVTKSFNRGEC
notes: one-arm antibody (single Fab) with Fab-less hinge-Fc chain Hi-Kn010G3
With B1, the Kd is 69.8 nM.

B2: hCE115HAa-E22Hh/none-Hi-Kn010G3/L0000-k0 (antibody, human IgG1, kappa, L234A L235A, N297A)
heavy: QVQLVESGGGVVQPGGSLRLSCAASGFTFSNAWMHWVRQAPGKGLEWVAQIKAKSNNYATYYAESVKGRFTISRDDSKNSLYLQMNSLKTEDTAVYYCRYVHYGAYYGVDAWGQGTTVTVSSASTKGPSVFPLAPSSKSTSGGTAALGCLVKDYFPEPVTVSWNSGALTSGVHTFPAVLQSSGLYSLSSVVTVPSSSLGTQTYICNVNHKPSNTKVDKKVEPKSCDKTHTCPPCPAPEAAGGPSVFLFPPKPKDTLMISRTPEVTCVVVDVSHEDPEVKFNWYVDGVEVHNAKTKPREEQYASTYRVVSVLTVLHQDWLNGKEYKCKVSNKALPAPIEKTISKAKGQPREPQVYTLPPSRCELTKNQVSLSCAVKGFYPSDIAVEWESNGQPENNYKTTPPVLDSDGSFFLVSKLTVDKSRWQQGNVFSCSVMHEALHNHYTQKSLSLSPDYKDDDDK
chain: EPKSSDKTHTCPPCPAPELLGGPSVFLFPPKPKDTLMISRTPEVTCVVVDVSHEDPEVKFNWYVDGVEVHNAKTKPREEQYNSTYRVVSVLTVLHQDWLNGKEYKCKVSNKALPAPIEKTISKAKGQPREPQVCTLPPSRDELTKNQVSLWCLVKGFYPSDIAVEWESNGQPENNYKTTPPVLDSDGSFFLYSKLTVDKSRWQQGNVFSCSVMHEALHNRYTQKSLSLSP
light: DIVMTQSPLSLPVTPGEPASISCRSSQSLVHSNRNTYLHWYQQKPGQAPRLLIYKVSNRFSGVPDRFSGSGSGTDFTLKISRVEAEDVGVYYCGQGTQVPYTFGQGTKLEIKRTVAAPSVFIFPPSDEQLKSGTASVVCLLNNFYPREAKVQWKVDNALQSGNSQESVTEQDSKDSTYSLSSTLTLSKADYEKHKVYACEVTHQGLSSPVTKSFNRGEC
notes: as for B1
In turn, B2 came in with a Kd of 108 nM.

B3: TR01H109-E22Hh/none-Hi-Kn010G3/L0011-k0 (antibody, human IgG1, kappa, L234A L235A, N297A)
heavy: QVQLVESGGGLVQPGRSLRLSCAASGFTFSNAWMHWVRQAPGKGLEWVAQIKDKSQNYATYVAESVKGRFTISRDDSKNSLYLQMNSLKTEDTAVYYCRYVHYAAGYGVDAWGQGTTVTVSSASTKGPSVFPLAPSSKSTSGGTAALGCLVKDYFPEPVTVSWNSGALTSGVHTFPAVLQSSGLYSLSSVVTVPSSSLGTQTYICNVNHKPSNTKVDKKVEPKSCDKTHTCPPCPAPEAAGGPSVFLFPPKPKDTLMISRTPEVTCVVVDVSHEDPEVKFNWYVDGVEVHNAKTKPREEQYASTYRVVSVLTVLHQDWLNGKEYKCKVSNKALPAPIEKTISKAKGQPREPQVYTLPPSRCELTKNQVSLSCAVKGFYPSDIAVEWESNGQPENNYKTTPPVLDSDGSFFLVSKLTVDKSRWQQGNVFSCSVMHEALHNHYTQKSLSLSPDYKDDDDK
chain: EPKSSDKTHTCPPCPAPELLGGPSVFLFPPKPKDTLMISRTPEVTCVVVDVSHEDPEVKFNWYVDGVEVHNAKTKPREEQYNSTYRVVSVLTVLHQDWLNGKEYKCKVSNKALPAPIEKTISKAKGQPREPQVCTLPPSRDELTKNQVSLWCLVKGFYPSDIAVEWESNGQPENNYKTTPPVLDSDGSFFLYSKLTVDKSRWQQGNVFSCSVMHEALHNRYTQKSLSLSP
light: DIVMTQSPLSLPVTPGEPASISCRSSQPLVHSNRNTYLHWYQQKPGQAPRLLIYKVSNRFSGVPDRFSGSGSGTDFTLKISRVEAEDVGVYYCGQGTQVPYTFGQGTKLEIKRTVAAPSVFIFPPSDEQLKSGTASVVCLLNNFYPREAKVQWKVDNALQSGNSQESVTEQDSKDSTYSLSSTLTLSKADYEKHKVYACEVTHQGLSSPVTKSFNRGEC
notes: as for B1
In the case of B3, the equilibrium dissociation constant (Kd) came out at 70.6 nM.

B4: hCE115HA-E22Hh/none-Hi-Kn010G3/L0000-k0 (antibody, human IgG1, kappa, L234A L235A, N297A)
heavy: QVQLVESGGGVVQPGRSLRLSCAASGFTFSNAWMHWVRQAPGKGLEWVAQIKAKSNNYATYYAESVKGRFTISRDDSKNSLYLQMNSLKTEDTAVYYCRYVHYGAYYGVDAWGQGTTVTVSSASTKGPSVFPLAPSSKSTSGGTAALGCLVKDYFPEPVTVSWNSGALTSGVHTFPAVLQSSGLYSLSSVVTVPSSSLGTQTYICNVNHKPSNTKVDKKVEPKSCDKTHTCPPCPAPEAAGGPSVFLFPPKPKDTLMISRTPEVTCVVVDVSHEDPEVKFNWYVDGVEVHNAKTKPREEQYASTYRVVSVLTVLHQDWLNGKEYKCKVSNKALPAPIEKTISKAKGQPREPQVYTLPPSRCELTKNQVSLSCAVKGFYPSDIAVEWESNGQPENNYKTTPPVLDSDGSFFLVSKLTVDKSRWQQGNVFSCSVMHEALHNHYTQKSLSLSPDYKDDDDK
chain: EPKSSDKTHTCPPCPAPELLGGPSVFLFPPKPKDTLMISRTPEVTCVVVDVSHEDPEVKFNWYVDGVEVHNAKTKPREEQYNSTYRVVSVLTVLHQDWLNGKEYKCKVSNKALPAPIEKTISKAKGQPREPQVCTLPPSRDELTKNQVSLWCLVKGFYPSDIAVEWESNGQPENNYKTTPPVLDSDGSFFLYSKLTVDKSRWQQGNVFSCSVMHEALHNRYTQKSLSLSP
light: DIVMTQSPLSLPVTPGEPASISCRSSQSLVHSNRNTYLHWYQQKPGQAPRLLIYKVSNRFSGVPDRFSGSGSGTDFTLKISRVEAEDVGVYYCGQGTQVPYTFGQGTKLEIKRTVAAPSVFIFPPSDEQLKSGTASVVCLLNNFYPREAKVQWKVDNALQSGNSQESVTEQDSKDSTYSLSSTLTLSKADYEKHKVYACEVTHQGLSSPVTKSFNRGEC
notes: as for B1
Take B4: the Kd came to 124 nM.

The term Kd denotes the constant that tells how readily two partners part at equilibrium. A lower Kd goes with higher affinity.
